Residue numbers refer to the chain shown, from its start. Like-named read-outs stand apart in the source and are kept apart here.
B1: AB-1 Fab (Fab, V domains shown)
VH: EVQLVESGAEVKKPGESLKISCKGSGYTFTRYWIGWVRQMPGKGLEWMGIIYPGDSDVRYSPSFQGHVTISADKSISTAYLQWNSLKASDTAMYYCARLPQYCSKGVCYRWFDPWGQGTLVTVSS
VL: EIVLTQSPSSVSASVGDRVTITCRASQGISSWLAWYQQKPGKAPKLLIYAASSLQSGVPSRFSGSGSGTDFTLTISSLQPEDFATYYCQQGHSFPYTFGQGTNLEIK
B2: AB-1 (antibody, V domains shown)
VH: B1 VH
VL: B1 VL
B3: Reference Antibody Fab (Fab, V domains shown)
VH: B1 VH with V58T, K105N, Y109Q
VL: B1 VL with H92N
B4: Reference Antibody (antibody, V domains shown)
VH: B1 VH with V58T, K105N, Y109Q
VL: B1 VL with H92N

Experiments:
[1] = target: T1, SARS-CoV-2 spike S2 peptide 1149-1167 (C-terminal end of the stem helix), biotinylated (SARS-CoV-2); assay: SPR, Fab over captured biotin-peptide, 25 C
[2] = target: T2, SARS-CoV-2 spike S2 peptide 1149-1163, biotinylated (SARS-CoV-2); assay: SPR, Fab over captured biotin-peptide, 25 C
[3] = target: SARS-CoV-2 spike S2 peptide 1143-1162 (stem helix region), biotinylated (SARS-CoV-2); assay: SPR, Fab over captured biotin-peptide, 25 C
[4] = target: T3, SARS-CoV-2 spike S2 peptide 1153-1167, biotinylated (SARS-CoV-2); assay: SPR, Fab over captured biotin-peptide, 25 C
[5] = target: T1, SARS-CoV-2 spike S2 peptide 1149-1167 …; assay: SPR, Fab over captured biotin-peptide, 25 C; remark: listed apart in the source
[6] = target: HIV-1 Env peptide (negative control 15-mer), biotinylated (HIV-1); assay: DELFIA, IgG titrated on captured biotin-peptide; design: unit not given beside the values
[7] = target: T1, SARS-CoV-2 spike S2 peptide 1149-1167 …; assay: DELFIA, IgG titrated on captured biotin-peptide; design: unit not given beside the values
[8] = target: SARS-CoV-2 spike S2 peptide 1137-1151, biotinylated (SARS-CoV-2); assay: DELFIA, IgG titrated on captured biotin-peptide; design: unit not given beside the values
[9] = target: T2, SARS-CoV-2 spike S2 peptide 1149-1163, …; assay: DELFIA, IgG titrated on captured biotin-peptide; design: unit not given beside the values
[10] = target: SARS-CoV-2 spike S2 peptide 1157-1171, biotinylated (SARS-CoV-2); assay: DELFIA, IgG titrated on captured biotin-peptide; design: unit not given beside the values
[11] = target: SARS-CoV-2 spike S2 peptide 1133-1147, biotinylated (SARS-CoV-2); assay: DELFIA, IgG titrated on captured biotin-peptide; design: unit not given beside the values
[12] = target: T3, SARS-CoV-2 spike S2 peptide 1153-1167, …; assay: DELFIA, IgG titrated on captured biotin-peptide; design: unit not given beside the values

| Binder | Kd [1] [nM] | koff [1] [s⁻¹] | kon [1] [M⁻¹ s⁻¹] | Kd [2] [nM] | koff [2] [s⁻¹] | kon [2] [M⁻¹ s⁻¹] | Kd [3] [nM] | koff [3] [s⁻¹] | kon [3] [M⁻¹ s⁻¹] | Kd [4] [nM] | koff [4] [s⁻¹] | kon [4] [M⁻¹ s⁻¹] | Kd [5] [nM] | AUC [6] | AUC [7] | AUC [8] | AUC [9] | AUC [10] | AUC [11] | AUC [12] |
| --- | --- | --- | --- | --- | --- | --- | --- | --- | --- | --- | --- | --- | --- | --- | --- | --- | --- | --- | --- | --- |
| B1 | 0.9 | 0.00241 | 2.61e+06 | 83.1 | 0.146 | 1.76e+06 | 12.3 | 0.037 | 3e+06 | 111 | 0.0774 | 697000 | 0.925 | – | – | – | – | – | – | – |
| B2 | – | – | – | – | – | – | – | – | – | – | – | – | – | 9860 | – | – | – | – | – | – |
| B3 | 5.4 | 0.00498 | 929000 | 244 | 0.0663 | 272000 | – | – | – | 311 | 0.0535 | 172000 | 5.36 | – | – | – | – | – | – | – |
| B4 | – | – | – | – | – | – | – | – | – | – | – | – | – | 16100 | 3.05e+06 | 5050 | 3.26e+06 | 6010 | 3260 | 3.12e+06 |
